We go through two molecules from publication PMC9482650, “Quantitative fragmentomics allow affinity mapping of interactomes” (Nature Communications, 2022).

The chains are these.
T1: APBA2_2, Q99767
T1 sequence (Q99767 654-744, limits assumed, looked up): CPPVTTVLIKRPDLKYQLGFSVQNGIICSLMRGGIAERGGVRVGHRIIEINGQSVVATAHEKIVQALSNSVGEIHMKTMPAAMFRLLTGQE

T2: ARHGAP21, Q5T5U3
T2 sequence (Q5T5U3 45-169, limits assumed, looked up): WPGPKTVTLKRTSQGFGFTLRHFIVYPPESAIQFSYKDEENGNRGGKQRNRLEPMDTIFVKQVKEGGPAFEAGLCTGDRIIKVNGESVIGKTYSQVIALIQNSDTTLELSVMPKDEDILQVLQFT

T3: DFNB31_2, Q9P202
T3 sequence (Q9P202 274-371, limits assumed, looked up): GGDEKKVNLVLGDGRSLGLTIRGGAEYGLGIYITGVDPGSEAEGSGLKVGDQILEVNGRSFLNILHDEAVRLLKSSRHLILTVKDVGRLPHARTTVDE

T4: DLG3_1, Q92796
T4 sequence (Q92796 125-227, limits assumed, looked up): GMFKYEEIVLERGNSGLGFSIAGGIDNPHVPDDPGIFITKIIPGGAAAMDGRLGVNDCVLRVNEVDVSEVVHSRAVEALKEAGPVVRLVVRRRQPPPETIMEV

T5: LIN7A, O14910
T5 sequence (O14910 103-200, limits assumed, looked up): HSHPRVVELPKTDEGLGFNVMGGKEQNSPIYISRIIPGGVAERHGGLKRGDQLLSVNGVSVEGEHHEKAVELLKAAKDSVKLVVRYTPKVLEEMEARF

T6: LRRC7, Q96NW7
T6 sequence (Q96NW7 1440-1537, limits assumed, looked up): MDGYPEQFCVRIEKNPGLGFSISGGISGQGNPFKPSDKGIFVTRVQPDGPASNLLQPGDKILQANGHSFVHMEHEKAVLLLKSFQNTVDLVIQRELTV

T7: MPDZ_10, O75970
T7 sequence (O75970 1624-1722, limits assumed, looked up): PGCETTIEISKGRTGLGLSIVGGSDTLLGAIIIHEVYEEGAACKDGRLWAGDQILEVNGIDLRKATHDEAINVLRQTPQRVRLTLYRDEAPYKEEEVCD

T8: MPDZ_12, O75970
T8 sequence (O75970 1857-1958, limits assumed, looked up): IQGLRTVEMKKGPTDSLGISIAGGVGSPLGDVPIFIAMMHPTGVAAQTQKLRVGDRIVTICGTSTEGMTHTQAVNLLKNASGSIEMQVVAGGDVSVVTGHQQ

T9: MPDZ_5, O75970
T9 sequence (O75970 695-796, limits assumed, looked up): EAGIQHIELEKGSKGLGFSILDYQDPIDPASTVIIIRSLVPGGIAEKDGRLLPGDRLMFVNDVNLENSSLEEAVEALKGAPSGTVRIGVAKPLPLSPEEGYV

T10: NHERF3_1, Q5T2W1
T10 sequence (Q5T2W1 4-100, limits assumed, looked up): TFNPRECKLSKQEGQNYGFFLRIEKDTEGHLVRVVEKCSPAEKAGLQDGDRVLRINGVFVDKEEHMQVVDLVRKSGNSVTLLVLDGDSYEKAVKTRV

T11: NHERF3_4, Q5T2W1
T11 sequence (Q5T2W1 373-468, limits assumed, looked up): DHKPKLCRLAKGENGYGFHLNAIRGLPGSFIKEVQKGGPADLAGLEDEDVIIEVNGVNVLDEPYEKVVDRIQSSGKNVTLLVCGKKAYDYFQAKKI

T12: PDZRN3_1, Q9UPQ7
T12 sequence (Q9UPQ7 244-349, limits assumed, looked up): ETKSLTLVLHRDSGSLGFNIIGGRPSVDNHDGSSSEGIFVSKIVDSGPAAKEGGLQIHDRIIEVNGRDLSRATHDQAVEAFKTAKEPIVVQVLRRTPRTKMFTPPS

T13: TX1BP3, O14907
T13 sequence (O14907 10-122, limits assumed, looked up): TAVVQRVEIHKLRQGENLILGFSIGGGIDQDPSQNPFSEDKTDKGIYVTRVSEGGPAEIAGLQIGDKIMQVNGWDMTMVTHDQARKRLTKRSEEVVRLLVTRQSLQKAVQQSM

B1: MYOZ2, Q9NPC6 (peptide)
chain: DTTVPESEDL
B2: RNF146, Q9NTX7 (peptide)
chain: PDGQCTVTEV

Sequence of TJP1_2, Q07157 (Q07157 181-274): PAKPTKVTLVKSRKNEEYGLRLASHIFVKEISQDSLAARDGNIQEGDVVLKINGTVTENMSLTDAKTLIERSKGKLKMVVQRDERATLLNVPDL
Sequence of MAST1, Q9Y2H9 (Q9Y2H9 962-1065): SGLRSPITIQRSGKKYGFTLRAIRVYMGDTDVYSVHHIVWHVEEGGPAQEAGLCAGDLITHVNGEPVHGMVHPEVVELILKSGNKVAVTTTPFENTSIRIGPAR
Sequence of MAGI2_5, Q86UL8 (Q86UL8 915-1017): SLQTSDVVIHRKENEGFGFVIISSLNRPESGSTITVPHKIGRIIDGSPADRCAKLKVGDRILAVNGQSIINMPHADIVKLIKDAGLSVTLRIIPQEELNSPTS
Sequence of PTPN3, P26045 (P26045 505-587): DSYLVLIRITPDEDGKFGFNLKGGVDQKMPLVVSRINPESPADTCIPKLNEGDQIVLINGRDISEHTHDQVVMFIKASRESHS

The first assay has as its target T1, APBA2_2, Q99767. Nature of the assay: holdup assay. The arrangement: key: below the threshold = too weak to quantify, mostly under pKd 3.1 to 4. Conditions: plain residues with an end cap or a label only (N-terminal biotin on a linker: ado-ado).
In general, pKd refers to the negative decadic logarithm of the Kd, by convention in mol/L. As to B1, the pKd entry is on record as “below the threshold”.

Consider B2, for which the pKd result is “below the threshold”.

The next assay deals with T2, ARHGAP21, Q5T5U3. Nature of the assay: holdup assay. Also noted: key: below the threshold = too weak to quantify, mostly under pKd 3.1 to 4. The following applies: plain residues with an end cap or a label only (N-terminal biotin on a linker: ado-ado).
With B1, the pKd entry is given as “below the threshold”.

For the molecule B2, the pKd result is listed as “below the threshold”.

The target of another assay is T3, DFNB31_2, Q9P202. Nature of the assay: holdup assay. Conditions: plain residues with an end cap or a label only (N-terminal biotin on a linker: ado-ado). The arrangement: key: below the threshold = too weak to quantify, mostly under pKd 3.1 to 4.
In the case of B1, the pKd result is reported as “below the threshold”.

As for B2, the pKd result is listed as “below the threshold”.

The target in a further assay is DLG1_2, Q12959. Nature of the assay: holdup assay. The arrangement: key: below the threshold = too weak to quantify, mostly under pKd 3.1 to 4. The following applies: plain residues with an end cap or a label only (N-terminal biotin on a linker: ado-ado).
Sequence of DLG1_2, Q12959 (Q12959 314-412): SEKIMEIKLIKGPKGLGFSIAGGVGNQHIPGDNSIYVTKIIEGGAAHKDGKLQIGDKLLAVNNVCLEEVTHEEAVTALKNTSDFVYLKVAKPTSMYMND
On to B1, for which the pKd result is “below the threshold”.

B2: the pKd was found to be 5.3.

Another assay addresses DLG2_2, Q15700. Nature of the assay: holdup assay. The arrangement: key: below the threshold = too weak to quantify, mostly under pKd 3.1 to 4. Conditions: plain residues with an end cap or a label only (N-terminal biotin on a linker: ado-ado).
For B1, the pKd result was “below the threshold”.

B2 returned a pKd of 4.9.

A further assay concerns the target DLG2_3, Q15700. Nature of the assay: holdup assay. Also noted: key: below the threshold = too weak to quantify, mostly under pKd 3.1 to 4. Conditions: plain residues with an end cap or a label only (N-terminal biotin on a linker: ado-ado).
On to B1, for which the pKd entry was “below the threshold”.

B2 registered a pKd of 3.68.

The target of a further assay is T4, DLG3_1, Q92796. Nature of the assay: holdup assay. Also noted: key: below the threshold = too weak to quantify, mostly under pKd 3.1 to 4. Conditions: plain residues with an end cap or a label only (N-terminal biotin on a linker: ado-ado).
Regarding B1, the pKd entry was “below the threshold”.

Take B2: the negative logarithm of the Kd (pKd) was 3.87.

The target of another assay is HTRA1, Q92743. Nature of the assay: holdup assay. The following applies: plain residues with an end cap or a label only (N-terminal biotin on a linker: ado-ado). Also noted: key: below the threshold = too weak to quantify, mostly under pKd 3.1 to 4.
Sequence of HTRA1, Q92743 (Q92743 360-477): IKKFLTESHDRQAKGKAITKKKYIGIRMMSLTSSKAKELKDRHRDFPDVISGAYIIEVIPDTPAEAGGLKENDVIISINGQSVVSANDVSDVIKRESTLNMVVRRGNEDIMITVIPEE
Take B1: the pKd result is reported as “below the threshold”.

Take B2: the pKd stood at 5.05.

Another assay deals with IL16_3, Q14005. Nature of the assay: holdup assay. The arrangement: key: below the threshold = too weak to quantify, mostly under pKd 3.1 to 4. The following applies: plain residues with an end cap or a label only (N-terminal biotin on a linker: ado-ado).
Sequence of IL16_3, Q14005 (Q14005 1107-1207): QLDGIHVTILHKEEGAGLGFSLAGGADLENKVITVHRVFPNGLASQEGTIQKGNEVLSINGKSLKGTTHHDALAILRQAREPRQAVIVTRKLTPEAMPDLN
Turning to B1, the pKd result is “below the threshold”.

As for B2, the negative logarithm of the Kd (pKd) result was “below the threshold”.

The target of the next assay is T5, LIN7A, O14910. Nature of the assay: holdup assay. Conditions: plain residues with an end cap or a label only (N-terminal biotin on a linker: ado-ado). Also noted: key: below the threshold = too weak to quantify, mostly under pKd 3.1 to 4.
For the molecule B1, the pKd result was “below the threshold”.

With B2, the pKd result is “below the threshold”.

Another assay deals with T6, LRRC7, Q96NW7. Nature of the assay: holdup assay. The arrangement: key: below the threshold = too weak to quantify, mostly under pKd 3.1 to 4. The following applies: plain residues with an end cap or a label only (N-terminal biotin on a linker: ado-ado).
For the molecule B1, the negative logarithm of the Kd (pKd) result is “below the threshold”.

As to B2, the pKd turned out to be 3.89.

The next assay concerns the target MAGI2_5, Q86UL8. Nature of the assay: holdup assay. Also noted: key: below the threshold = too weak to quantify, mostly under pKd 3.1 to 4. The following applies: plain residues with an end cap or a label only (N-terminal biotin on a linker: ado-ado).
On to B1, for which the pKd entry is reported as “below the threshold”.

The molecule B2 came in with a pKd of 4.47.

Another assay has as its target MAST1, Q9Y2H9. Nature of the assay: holdup assay. Also noted: key: below the threshold = too weak to quantify, mostly under pKd 3.1 to 4. Conditions: plain residues with an end cap or a label only (N-terminal biotin on a linker: ado-ado).
In turn, B1 showed a pKd of 4.21.

On to B2, for which the pKd stood at 4.8.

For a further assay, the target named is T7, MPDZ_10, O75970. Nature of the assay: holdup assay. The following applies: plain residues with an end cap or a label only (N-terminal biotin on a linker: ado-ado). The arrangement: key: below the threshold = too weak to quantify, mostly under pKd 3.1 to 4.
In the case of B1, the pKd result was “below the threshold”.

With B2, the pKd entry is reported as “below the threshold”.

For another assay, the target named is T8, MPDZ_12, O75970. Nature of the assay: holdup assay. Also noted: key: below the threshold = too weak to quantify, mostly under pKd 3.1 to 4. The following applies: plain residues with an end cap or a label only (N-terminal biotin on a linker: ado-ado).
With B1, the pKd result was “below the threshold”.

Regarding B2, the pKd result is on record as “below the threshold”.

A further assay addresses T9, MPDZ_5, O75970. Nature of the assay: holdup assay. The arrangement: key: below the threshold = too weak to quantify, mostly under pKd 3.1 to 4. The following applies: plain residues with an end cap or a label only (N-terminal biotin on a linker: ado-ado).
On to B1, for which the pKd result is reported as “below the threshold”.

Consider B2, for which the pKd entry is given as “below the threshold”.

Another assay deals with T10, NHERF3_1, Q5T2W1. Nature of the assay: holdup assay. Also noted: key: below the threshold = too weak to quantify, mostly under pKd 3.1 to 4. The following applies: plain residues with an end cap or a label only (N-terminal biotin on a linker: ado-ado).
For B1, the pKd result is recorded as “below the threshold”.

Consider B2, for which the pKd entry is “below the threshold”.

The next assay has as its target T11, NHERF3_4, Q5T2W1. Nature of the assay: holdup assay. The arrangement: key: below the threshold = too weak to quantify, mostly under pKd 3.1 to 4. Conditions: plain residues with an end cap or a label only (N-terminal biotin on a linker: ado-ado).
As for B1, the pKd result is recorded as “below the threshold”.

Turning to B2, the pKd result is recorded as “below the threshold”.

In another assay the target is NOS1, P29475. Nature of the assay: holdup assay. Also noted: key: below the threshold = too weak to quantify, mostly under pKd 3.1 to 4. Conditions: plain residues with an end cap or a label only (N-terminal biotin on a linker: ado-ado).
Sequence of NOS1, P29475 (P29475 9-101): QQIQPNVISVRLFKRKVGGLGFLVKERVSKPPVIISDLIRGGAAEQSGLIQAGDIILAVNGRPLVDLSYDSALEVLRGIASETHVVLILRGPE
Take B1: the pKd result is “below the threshold”.

Molecule B2 came in with a pKd of 3.74.

The next assay concerns the target T12, PDZRN3_1, Q9UPQ7. Nature of the assay: holdup assay. The arrangement: key: below the threshold = too weak to quantify, mostly under pKd 3.1 to 4. Conditions: plain residues with an end cap or a label only (N-terminal biotin on a linker: ado-ado).
As to B1, the pKd result is listed as “below the threshold”.

B2 came in with a pKd of 3.5.

For another assay, the target named is PICK1, Q9NRD5. Nature of the assay: holdup assay. Also noted: key: below the threshold = too weak to quantify, mostly under pKd 3.1 to 4. The following applies: plain residues with an end cap or a label only (N-terminal biotin on a linker: ado-ado).
Sequence of PICK1, Q9NRD5 (Q9NRD5 17-115): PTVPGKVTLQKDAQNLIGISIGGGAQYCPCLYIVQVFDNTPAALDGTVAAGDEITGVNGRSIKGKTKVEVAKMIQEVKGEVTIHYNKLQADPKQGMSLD
On to B1, for which the pKd entry was “below the threshold”.

In the case of B2, the pKd result is on record as “below the threshold”.

The next assay concerns the target PTPN3, P26045. Nature of the assay: holdup assay. The arrangement: key: below the threshold = too weak to quantify, mostly under pKd 3.1 to 4. The following applies: plain residues with an end cap or a label only (N-terminal biotin on a linker: ado-ado).
Consider B1, for which the pKd was determined as 4.25.

The molecule B2 had a pKd of 4.99.

Another assay addresses TJP1_2, Q07157. Nature of the assay: holdup assay. The arrangement: key: below the threshold = too weak to quantify, mostly under pKd 3.1 to 4. Conditions: plain residues with an end cap or a label only (N-terminal biotin on a linker: ado-ado).
On to B1, for which the pKd result is reported as “below the threshold”.

Take B2: the pKd result is on record as “below the threshold”.

A further assay concerns the target T13, TX1BP3, O14907. Nature of the assay: holdup assay. The arrangement: key: below the threshold = too weak to quantify, mostly under pKd 3.1 to 4. The following applies: plain residues with an end cap or a label only (N-terminal biotin on a linker: ado-ado).
Turning to B1, the pKd entry is listed as “below the threshold”.

Turning to B2, the pKd was found to be 4.78.
